Laboratory results reported in patent US20260234222A1.

Molecular target: SARS-CoV-2 Delta Spike antigen (SARS-CoV-2 Delta)
Assay: ELISA, Spike antigen coated on plate

With Anti-S1 antibody DZIF-10c the EC50 was 6.9 nM.
With Anti-S1 antibody ImdevimAb the EC50 was 0.01 nM.
